Experimental data published in the supplement of paper PMC5998384.

Legend:
[1] = tested on: HeLa Kyoto; experiment: thermal stability score vs G1/S (z-score of summed log2 fold changes over temperatures); higher = more thermally stable than in G1/S
[2] = tested on: HeLa Kyoto; experiment: melting temperature (median over replicates), in situ; higher = more thermally stable
[3] = tested on: HeLa Kyoto; experiment: solubility change mitosis vs G1/S (difference of NP-40 vs SDS log2 ratios) (log2 ratio difference); higher = more soluble in mitosis
[4] = tested on: HeLa Kyoto; experiment: solubility in G1/S (NP-40 vs SDS abundance) (log2 ratio); higher = more soluble; conditions: cell cycle stage: G1/S
[5] = cell cycle stage: early G1 (4.5 h after nocodazole release)
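For melting temperature (median over replicates), in situ in this document: HeLa Kyoto cells synchronized by double thymidine or nocodazole block, proteins quantified by TMT10plex mass spectrometry, three independent biological replicates.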
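For solubility change mitosis vs G1/S (difference of NP-40 vs SDS log2 ratios) in this document: synchronized HeLa Kyoto cells (double thymidine block for G1/S, nocodazole release for mitosis), protein amounts in NP-40 versus SDS lysates quantified by mass spectrometry, three biological replicates.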
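For solubility in G1/S (NP-40 vs SDS abundance) in this document: HeLa Kyoto cells arrested at G1/S by double thymidine block, proteins quantified by TMT10plex mass spectrometry in mild NP-40 versus SDS extracts, three biological replicates.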
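For thermal stability score vs G1/S (z-score of summed log2 fold changes over temperatures) in this document: synchronized HeLa Kyoto cells, proteins quantified by TMT10plex mass spectrometry, three biological replicates, mitosis taken 0.5 h after nocodazole release, G1/S directly after double thymidine block.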

Row | Sequence | thermal stability score [1, 5] | thermal stability score ([1]; cell cycle stage: mitosis) | melting temperature ([2]; cell cycle stage: G1/S) | melting temperature ([2]; cell cycle stage: mitosis) | solubility change mitosis (log2) [3] | solubility in G1/S (log2) [4]
1 | MSKEERPGREEILECQVMWEPDSKKNTQMDRFRAAVGAACGLALESYDDLYHWSVESYSDFWAEFWKFSGIVFSRVYDEVVDTSKGIADVPEWFKGSRLNYAENLLRHKENDRVALYIAREGKEEIVKVTFEELRQEVALFAAAMRKMGVKKGDRVVGYLPNSEHAVEAMLAAASIGAIWSSTSPDFGVNGVLDRFSQIQPKLIFSVEAVVYNGKEHNHMEKLQQVVKGLPDLKKVVVIPYVSSRENIDLSKIPNSVFLDDFLATGTSEQAPQLEFEQLPFSHPLFIMFSSGTTGAPKCMVHSAGGTLIQHLKEHLLHGNMTSSDILLCYTTVGWMMWNWMVSLLATGAAMVLYDGSPLVPTPNVLWDLVDRIGITVLVTGAKWLSVLEEKAMKPVETHSLQMLHTILSTGSPLKAQSYEYVYRCIKSSILLGSISGGTDIISCFMGHNFSLPVYKGEIQARNLGMAVEAWNEEGKAVWGESGELVCTKPIPCQPTHFWNDENGNKYRKAYFSKFPGIWAHGDYCRINPKTGGIVMLGRSDGTLNPNGVRFGSSEIYNIVESFEEVEDSLCVPQYNKYREERVILFLKMASGHAFQPDLVKRIRDAIRMGLSARHVPSLILETKGIPYTLNGKKVEVAVKQIIAGKAVEQGGAFSNPETLDLYRDIPELQGF [AACS] | 0.491 | 1.92 | 48.5 °C | 48 °C | -0.129 | 0.0299
2 | MSKLKVIPEKSLTNNSRIVGLLAQLEKINAEPSESDTARYVTSKILHLAQSQEKTRREMTAKGSTGMEILLSTLENTKDLQTTLNILSILVELVSAGGGRRVSFLVTKGGSQILLQLLMNASKESPPHEDLMVQIHSILAKIGPKDKKFGVKARINGALNITLNLVKQNLQNHRLVLPCLQLLRVYSANSVNSVSLGKNGVVELMFKIIGPFSKKNSSLIKVALDTLAALLKSKTNARRAVDRGYVQVLLTIYVDWHRHDNRHRNMLIRKGILQSLKSVTNIKLGRKAFIDANGMKILYNTSQECLAVRTLDPLVNTSSLIMRKCFPKNRLPLPTIKSSFHFQLPVIPVTGPVAQLYSLPPEVDDVVDESDDNDDIDVEAENETENEDDLDQNFKNDDIETDINKLKPQQEPGRTIEDLKMYEHLFPELVDDFQDYDLISKEPKPFVFEGKVRGPIVVPTAGEETSGNSGNLRKVVMKENISSKGDEGEKKSTFMDLAKEDIKDNDRTLQQQPGDQNRTISSVHGLNNDIVKALDRITLQNIPSQTAPGFTAEMKKDCSLPLTVLTCAKACPHMATCGNVLFEGRTVQLGKLCCTGVETEDDEDTESNSSVEQASVEVPDGPTLHDPDLYIEIVKNTKSVPEYSEVAYPDYFGHIPPPFKEPILERPYGVQRTKIAQDIERLIHQSDIIDRVVYDLDNPNYTIPEEGDILKFNSKFESGNLRKVIQIRKNEYDLILNSDINSNHYHQWFYFEVSGMRPGVAYRFNIINCEKSNSQFNYGMQPLMYSVQEALNARPWWIRMGTDICYYKNHFSRSSVAAGGQKGKSYYTITFTVNFPHKDDVCYFAYHYPYTYSTLQMHLQKLESAHNPQQIYFRKDVLCETLSGNSCPLVTITAMPESNYYEHICHFRNRPYVFLSARVHPGETNASWVMKGTLEYLMSNNPTAQSLRESYIFKIVPMLNPDGVINGNHRCSLSGEDLNRQWQSPSPDLHPTIYHAKGLLQYLAAVKRLPLVYCDYHGHSRKKNVFMYGCSIKETVWHTNDNATSCDVVEDTGYRTLPKILSHIAPAFCMSSCSFVVEKSKESTARVVVWREIGVQRSYTMESTLCGCDQGKYKGLQIGTRELEEMGAKFCVGLLRLKRLTSPLEYNLPSSLLDFENDLIESSCKVTSPTTYVLDEDEPRFLEEVDYSAESNDELDIELAENVGDYEPSAQEEVLSDSELSRTYLP [AGTPBP1] | -0.000956 | 0.14 | 50.2 °C | 50.3 °C | -0.0731 | -0.204
3 | MSKRLRSSEVCADCSGPDPSWASVNRGTFLCDECCSVHRSLGRHISQVRHLKHTPWPPTLLQMVETLYNNGANSIWEHSLLDPASIMSGRRKANPQDKVHPNKAEFIRAKYQMLAFVHRLPCRDDDSVTAKDLSKQLHSSVRTGNLETCLRLLSLGAQANFFHPEKGNTPLHVASKAGQILQAELLAVYGADPGTQDSSGKTPVDYARQGGHHELAERLVEIQYELTDRLAFYLCGRKPDHKNGQHFIIPQMADSSLDLSELAKAAKKKLQSLSNHLFEELAMDVYDEVDRRETDAVWLATQNHSALVTETTVVPFLPVNPEYSSTRNQGRQKLARFNAHEFATLVIDILSDAKRRQQGSSLSGSKDNVELILKTINNQHSVESQDNDQPDYDSVASDEDTDLETTASKTNRQKSLDSDLSDGPVTVQEFMEVKNALVASEAKIQQLMKVNNNLSDELRIMQKKLQTLQSENSNLRKQATTNVYQVQTGSEYTDTSNHSSLKRRPSARGSRPMSMYETGSGQKPYLPMGEASRPEESRMRLQPFPAHIGRSALVTSSSSLPSFPSTLSWSRDESARRASRLEKQNSTPESDYDNTPNDMEPDGMGSSRKGRQRSMVWPGDGLVPDTAEPHVAPSPTLPSTEDVIRKTEQITKNIQELLRAAQENKHDSYIPCSERIHVAVTEMAALFPKKPKSDMVRTSLRLLTSSAYRLQSECKKTLPGDPGSPTDVQLVTQQVIQCAYDIAKAAKQLVTITTKENNN [GIT2] | 1.06 | 2.68 | 48 °C | 48.9 °C | -0.13 | 0.317
4 | MSKSESPKEPEQLRKLFIGGLSFETTDESLRSHFEQWGTLTDCVVMRDPNTKRSRGFGFVTYATVEEVDAAMNARPHKVDGRVVEPKRAVSREDSQRPGAHLTVKKIFVGGIKEDTEEHHLRDYFEQYGKIEVIEIMTDRGSGKKRGFAFVTFDDHDSVDKIVIQKYHTVNGHNCEVRKALSKQEMASASSSQRGRSGSGNFGGGRGGGFGGNDNFGRGGNFSGRGGFGGSRGGGGYGGSGDGYNGFGNDGGYGGGGPGYSGGSRGYGSGGQGYGNQGSGYGGSGSYDSYNNGGGGGFGGGSGSNFGGGGSYNDFGNYNNQSSNFGPMKGGNFGGRSSGPYGGGGQYFAKPRNQGGYGGSSSSSSYGSGRRF [HNRNPA1] | -0.92 | 1.18 | 49.4 °C | 50.1 °C | 0.275 | -0.184
5 | MSKSKDDAPHELESQFILRLPPEYASTVRRAVQSGHVNLKDRLTIELHPDGRHGIVRVDRVPLASKLVDLPCVMESLKTIDKKTFYKTADICQMLVSTVDGDLYPPVEEPVASTDPKASKKKDKDKEKKFIWNHGITLPLKNVRKRRFRKTAKKKYIESPDVEKEVKRLLSTDAEAVSTRWEIIAEDETKEAENQGLDISSPGMSGHRQGHDSLEHDELREIFNDLSSSSEDEDETQHQDEEDINIIDTEEDLERQLQDKLNESDEQHQENEGTNQLVMGIQKQIDNMKGKLQETQDRAKRQEDLIMKVENLALKNRFQAVLDELKQKEDREKEQLSSLQEELESLLEK [TAF7] | 1.09 | 3.64 | 52 °C | 51.6 °C | 0.081 | 0.55
6 | MSLADELLADLEEAAEEEEGGSYGEEEEEPAIEDVQEETQLDLSGDSVKTIAKLWDSKMFAEIMMKIEEYISKQAKASEVMGPVEAAPEYRVIVDANNLTVEIENELNIIHKFIRDKYSKRFPELESLVPNALDYIRTVKELGNSLDKCKNNENLQQILTNATIMVVSVTASTTQGQQLSEEELERLEEACDMALELNASKHRIYEYVESRMSFIAPNLSIIIGASTAAKIMGVAGGLTNLSKMPACNIMLLGAQRKTLSGFSSTSVLPHTGYIYHSDIVQSLPPDLRRKAARLVAAKCTLAARVDSFHESTEGKVGYELKDEIERKFDKWQEPPPVKQVKPLPAPLDGQRKKRGGRRYRKMKERLGLTEIRKQANRMSFGEIEEDAYQEDLGFSLGHLGKSGSGRVRQTQVNEATKARISKTLQRTLQKQSVVYGGKSTIRDRSSGTASSVAFTPLQGLEIVNPQAAEKKVAEANQKYFSSMAEFLKVKGEKSGLMST [PRPF31] | 2.25 | 7.81 | 46.8 °C | 48.3 °C | 0.246 | -0.0726
7 | MSLLLYYALPALGSYAMLSIFFLRRPHLLHTPRAPTFRIRLGAHRGGSGELLENTMEAMENSMAQRSDLLELDCQLTRDRVVVVSHDENLCRQSGLNRDVGSLDFEDLPLYKEKLEVYFSPGHFAHGSDRRMVRLEDLFQRFPRTPMSVEIKGKNEELIREIAGLVRRYDRNEITIWASEKSSVMKKCKAANPEMPLSFTISRGFWVLLSYYLGLLPFIPIPEKFFFCFLPNIINRTYFPFSCSCLNQLLAVVSKWLIMRKSLIRHLEERGVQVVFWCLNEESDFEAAFSVGATGVITDYPTALRHYLDNHGPAARTS [GDPD3] | -0.274 | 0.35 | 56.4 °C | 55.1 °C | -0.0964 | -0.262
8 | MSLLMISENVKLAREYALLGNYDSAMVYYQGVLDQMNKYLYSVKDTYLQQKWQQVWQEINVEAKHVKDIMKTLESFKLDSTPLKAAQHDLPASEGEVWSMPVPVERRPSPGPRKRQSSQYSDPKSHGNRPSTTVRVHRSSAQNVHNDRGKAVRCREKKEQNKGREEKNKSPAAVTEPETNKFDSTGYDKDLVEALERDIISQNPNVRWDDIADLVEAKKLLKEAVVLPMWMPEFFKGIRRPWKGVLMVGPPGTGKTLLAKAVATECKTTFFNVSSSTLTSKYRGESEKLVRLLFEMARFYSPATIFIDEIDSICSRRGTSEEHEASRRVKAELLVQMDGVGGTSENDDPSKMVMVLAATNFPWDIDEALRRRLEKRIYIPLPSAKGREELLRISLRELELADDVDLASIAENMEGYSGADITNVCRDASLMAMRRRIEGLTPEEIRNLSKEEMHMPTTMEDFEMALKKVSKSVSAADIERYEKWIFEFGSC [KATNA1] | 0.0753 | 0.484 | 51.4 °C | 49.9 °C | -0.000211 | 0.0763
9 | MSLLQSALDFLAGPGSLGGASGRDQSDFVGQTVELGELRLRVRRVLAEGGFAFVYEAQDVGSGREYALKRLLSNEEEKNRAIIQEVCFMKKLSGHPNIVQFCSAASIGKEESDTGQAEFLLLTELCKGQLVEFLKKMESRGPLSCDTVLKIFYQTCRAVQHMHRQKPPIIHRDLKVENLLLSNQGTIKLCDFGSATTISHYPDYSWSAQRRALVEEEITRNTTPMYRTPEIIDLYSNFPIGEKQDIWALGCILYLLCFRQHPFEDGAKLRIVNGKYSIPPHDTQYTVFHSLIRAMLQVNPEERLSIAEVVHQLQEIAAARNVNPKSPITELLEQNGGYGSATLSRGPPPPVGPAGSGYSGGLALAEYDQPYGGFLDILRGGTERLFTNLKDTSSKVIQSVANYAKGDLDISYITSRIAVMSFPAEGVESALKNNIEDVRLFLDSKHPGHYAVYNLSPRTYRPSRFHNRVSECGWAARRAPHLHTLYNICRNMHAWLRQDHKNVCVVHCMDGRAASAVAVCSFLCFCRLFSTAEAAVYMFSMKRCPPGIWPSHKRYIEYMCDMVAEEPITPHSKPILVRAVVMTPVPLFSKQRSGCRPFCEVYVGDERVASTSQEYDKMRDFKIEDGKAVIPLGVTVQGDVLIVIYHARSTLGGRLQAKMASMKMFQIQFHTGFVPRNATTVKFAKYDLDACDIQEKYPDLFQVNLEVEVEPRDRPSREAPPWENSSMRGLNPKILFSSREEQQDILSKFGKPELPRQPGSTAQYDAGAGSPEAEPTDSDSPPSSSADASRFLHTLDWQEEKEAETGAENASSKESESALMEDRDESEVSDEGGSPISSEGQEPRADPEPPGLAAGLVQQDLVFEVETPAVLPEPVPQEDGVDLLGLHSEVGAGPAVPPQACKAPSSNTDLLSCLLGPPEAASQGPPEDLLSEDPLLLASPAPPLSVQSTPRGGPPAAADPFGPLLPSSGNNSQPCSNPDLFGEFLNSDSVTVPPSFPSAHSAPPPSCSADFLHLGDLPGEPSKMTASSSNPDLLGGWAAWTETAASAVAPTPATEGPLFSPGGQPAPCGSQASWTKSQNPDPFADLGDLSSGLQGSPAGFPPGGFIPKTATTPKGSSSWQTSRPPAQGASWPPQAKPPPKACTQPRPNYASNFSVIGAREERGVRAPSFAQKPKVSENDFEDLLSNQGFSSRSDKKGPKTIAEMRKQDLAKDTDPLKLKLLDWIEGKERNIRALLSTLHTVLWDGESRWTPVGMADLVAPEQVKKHYRRAVLAVHPDKAAGQPYEQHAKMIFMELNDAWSEFENQGSRPLF | 0.76 | 1.62 | 48.6 °C | 48.9 °C | -0.151 | -0.0682
